This assay addresses full-length HeV-RBP (Hendra virus receptor binding protein); head, stalk, transmembrane, and cytoplasmic … (Hendra virus, UniProt O89343). Kind of assay: flow cytometry on cells. For orientation: A flow cytometer gives signals particle by particle.

From publication doi:10.1101/2021.02.17.431743 (bioRxiv, 2021) come the findings set out here.

Sequence of full-length HeV-RBP (Hendra virus receptor binding protein); head, stalk, transmembrane, and cytoplasmic … (O89343 whole entry): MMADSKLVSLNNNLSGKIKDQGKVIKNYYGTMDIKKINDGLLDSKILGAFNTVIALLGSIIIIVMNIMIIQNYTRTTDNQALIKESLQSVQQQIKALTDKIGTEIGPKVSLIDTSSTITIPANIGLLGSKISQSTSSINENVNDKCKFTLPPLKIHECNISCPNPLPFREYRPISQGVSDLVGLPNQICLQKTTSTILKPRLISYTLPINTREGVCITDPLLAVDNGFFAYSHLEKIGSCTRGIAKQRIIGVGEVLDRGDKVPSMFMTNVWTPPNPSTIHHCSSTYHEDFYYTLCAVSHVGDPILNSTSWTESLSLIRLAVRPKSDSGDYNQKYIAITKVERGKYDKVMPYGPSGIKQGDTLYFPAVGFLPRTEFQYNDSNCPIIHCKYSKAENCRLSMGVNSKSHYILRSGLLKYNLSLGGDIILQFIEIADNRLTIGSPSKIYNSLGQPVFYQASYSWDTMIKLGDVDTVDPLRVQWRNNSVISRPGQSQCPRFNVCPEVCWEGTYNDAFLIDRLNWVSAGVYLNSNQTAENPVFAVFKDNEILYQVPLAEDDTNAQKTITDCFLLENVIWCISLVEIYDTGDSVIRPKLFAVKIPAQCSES

B1: HENV-117 human monoclonal antibody (antibody, V domains shown)
VH: QVQLQQWGAGLLKPSETLSLTCDLSGGSFTNYYWTWIRHLPGKGLEWLGEINHSGRTNYSPSLKSRVTISVDTSKNQFSLRLSSVTAADTAVYYCARDIRKLAPKPHSYDLYYGMDVWGQGTTVTVSS
VL: EIVLTQSPGTLSLSPGERATLSCRASQSVGSNYLTWYQQKPGQPPRLLIYGASNRAAGIPDRFSGSGSGTDFTLTISRLEPEDFAVYYCQQYETSSRTFGQGTKVDIR
As to B1, the binding result is “binds”.

B2: HENV-103 human monoclonal antibody (antibody, V domains shown)
VH: QVQLQGSGPGLVKPSQTLSLTCSVSGGSVSRSGYYWGWIRQHPGKGLECIGYIYYSGITYYNPSLSGRLTISVDTSKNQFSLELSSVTAADTAVYYCARVWLGGGVFDFWGQGSLVTVSS
VL: EIVMTQSPATLSVSPGEGATLSCRASQSVSSNLAWYQQKPGQAPRLLIYDASTRATGIPARFSGSGSGTEFTLTISSLQSEDFAVYYCQQYNDWRTFGRGTKVEMR
For B2, the binding result is reported as “binds”.
